In patent publication US10344068B2, “Natriuretic polypeptides” (priority 2011, dated 2019):
Ends that are not written are not given here.

Tests used:
Type in all cases: cell-based
NPR-A (GC-A) = molecular target: T1, NPR-A (GC-A) (Homo sapiens, UniProt P16066); experiment: cGMP production in HEK 293 cells stably transfected to express NPR-A (GC-A); settings: NPR-A+ HEK 293 cells; 10^-10 M, 10^-8 M or 10^-6 M for 10 minutes
T1 construct: expressed in transfected cells; host or cells: HEK 293
T1 sequence (P16066 33-1061): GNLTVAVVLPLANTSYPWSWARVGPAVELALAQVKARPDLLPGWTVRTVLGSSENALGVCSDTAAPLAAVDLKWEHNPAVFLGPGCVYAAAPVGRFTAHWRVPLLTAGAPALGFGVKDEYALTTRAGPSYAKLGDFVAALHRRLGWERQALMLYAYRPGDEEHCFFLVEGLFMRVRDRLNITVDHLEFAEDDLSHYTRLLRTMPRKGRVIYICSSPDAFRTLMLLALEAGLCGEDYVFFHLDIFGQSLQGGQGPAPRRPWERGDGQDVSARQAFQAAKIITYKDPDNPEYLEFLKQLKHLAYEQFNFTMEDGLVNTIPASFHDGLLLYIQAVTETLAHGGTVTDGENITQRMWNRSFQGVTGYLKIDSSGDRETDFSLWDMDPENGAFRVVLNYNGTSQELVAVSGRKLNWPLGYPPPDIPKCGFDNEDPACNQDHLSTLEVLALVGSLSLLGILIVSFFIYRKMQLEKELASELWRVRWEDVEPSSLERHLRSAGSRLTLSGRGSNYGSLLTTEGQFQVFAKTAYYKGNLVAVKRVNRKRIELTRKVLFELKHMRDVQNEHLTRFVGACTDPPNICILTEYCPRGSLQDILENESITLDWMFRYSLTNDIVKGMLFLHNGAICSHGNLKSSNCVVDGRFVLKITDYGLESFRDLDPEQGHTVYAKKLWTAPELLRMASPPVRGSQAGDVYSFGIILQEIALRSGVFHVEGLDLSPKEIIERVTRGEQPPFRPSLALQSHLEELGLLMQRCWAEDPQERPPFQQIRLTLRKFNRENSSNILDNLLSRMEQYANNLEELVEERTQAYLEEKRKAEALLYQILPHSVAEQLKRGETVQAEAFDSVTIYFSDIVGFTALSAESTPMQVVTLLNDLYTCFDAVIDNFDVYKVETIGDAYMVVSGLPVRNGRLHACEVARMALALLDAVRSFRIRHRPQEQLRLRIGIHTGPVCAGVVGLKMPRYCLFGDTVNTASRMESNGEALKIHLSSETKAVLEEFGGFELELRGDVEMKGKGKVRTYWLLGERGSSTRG
Procedure: (§1) HEK 293 cells were stably transfected to express either NPR-A (GC-A) or NPR-B (GC-B) using Lipofectamine (Invitrogen, Grand Island, N.Y.). Transfected cells were maintained in Dulbecco's modified Eagle's medium supplemented with 10% fetal bovine serum, 100 U/mL penicillin, 100 U/mL streptomycin, and 250 μg/mL G418. The reagents were obtained from Invitrogen (Grand Island, N.Y.).
(§2) The following was performed to carry out cell stimulation and cGMP assays. Cells were plated in 6-well plates and treated as described elsewhere (Tsuruda et al., Circulation Research, 91:1127-1134 (2002)). Briefly, cells were incubated in Hank's balanced salt solution (Invitrogen, Carlsbad, Calif.) containing 20 mmol/L N-[2-hydroxyethyl]piperazine-N′[2-ethanesulfonic acid], 0.1% bovine serum albumin, and 0.5 mmol/L 3-isobutyl-1-methylzanthine (Sigma, St. Louis, Mo.). Treated cells received 10^−10 M, 10^−8M, or 10^−6 M of either BNP-Ang1-7 or Ang1-7BNP for 10 minutes. Cells were lysed in 300 μL 6% TCA and sonicated for 10 minutes. The samples were ether extracted four times in 4 volumes of ether, dried, and reconstituted in 500 μL cGMP assay buffer. The samples were assayed using a competitive RIA cGMP kit (Perkin-Elmer, Boston, Mass.) as described elsewhere (Steiner et al., J. Biol. Chem., 247:1106-1113 (1972)). Samples were corrected for dilution factors and protein concentration, and values were expressed as pmol cGMP/well. There was no cross-reactivity with ANP, BNP, CNP, and Endothelin-1, and less than 0.001 percent cross-reactivity with cAMP, GMP, GDP, ATP, and GTP.

NPR-B (GC-B) = molecular target: T2, NPR-B (GC-B) (Homo sapiens, UniProt P20594); experiment: cGMP production in HEK 293 cells stably transfected to express NPR-B (GC-B); settings: NPR-B+ HEK 293 cells; 10^-10 M, 10^-8 M or 10^-6 M for 10 minutes
T2 construct: expressed in transfected cells; host or cells: HEK 293
T2 sequence (P20594 23-1047): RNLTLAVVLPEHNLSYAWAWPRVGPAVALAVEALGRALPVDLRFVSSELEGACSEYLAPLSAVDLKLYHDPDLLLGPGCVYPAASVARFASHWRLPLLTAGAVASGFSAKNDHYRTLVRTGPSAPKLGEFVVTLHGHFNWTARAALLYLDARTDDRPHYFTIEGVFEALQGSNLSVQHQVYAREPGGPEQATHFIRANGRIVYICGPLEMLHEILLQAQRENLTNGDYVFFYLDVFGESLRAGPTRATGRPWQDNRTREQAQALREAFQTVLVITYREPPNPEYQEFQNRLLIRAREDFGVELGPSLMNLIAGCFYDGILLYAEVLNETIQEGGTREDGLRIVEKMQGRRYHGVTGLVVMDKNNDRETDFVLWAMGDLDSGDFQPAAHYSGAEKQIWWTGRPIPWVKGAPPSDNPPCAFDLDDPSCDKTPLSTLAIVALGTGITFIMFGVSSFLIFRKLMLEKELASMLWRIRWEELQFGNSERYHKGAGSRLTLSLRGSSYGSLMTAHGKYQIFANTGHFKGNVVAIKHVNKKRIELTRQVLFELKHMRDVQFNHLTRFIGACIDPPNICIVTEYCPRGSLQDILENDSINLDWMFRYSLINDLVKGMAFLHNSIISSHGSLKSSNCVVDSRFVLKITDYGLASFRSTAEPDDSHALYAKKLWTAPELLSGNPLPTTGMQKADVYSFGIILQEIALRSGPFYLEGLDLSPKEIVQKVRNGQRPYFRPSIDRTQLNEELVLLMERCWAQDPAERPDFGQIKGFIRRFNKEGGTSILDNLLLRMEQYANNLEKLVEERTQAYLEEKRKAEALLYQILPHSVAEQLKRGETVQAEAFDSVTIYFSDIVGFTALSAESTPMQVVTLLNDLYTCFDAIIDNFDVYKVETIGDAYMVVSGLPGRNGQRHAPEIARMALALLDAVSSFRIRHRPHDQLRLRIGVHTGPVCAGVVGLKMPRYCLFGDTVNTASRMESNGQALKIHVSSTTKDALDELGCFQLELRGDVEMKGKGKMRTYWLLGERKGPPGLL
Procedure: as §1, §2

[1] = test system: Human cardiac fibroblasts; experiment: cGMP production in human cardiac fibroblasts (competitive RIA cGMP kit); settings: human cardiac fibroblasts (CFs); 10^-6 M, 10^-8 M or 10^-10 M of NP or cANG for 10 minutes
Procedure: cANG was custom-synthesized to have the sequence set forth in FIG. 4 and confirmed by high performance liquid chromatography and mass spectroscopy to have a molecular weight of 3080.6 Da. Human cardiac fibroblasts (CFs; ScienCell, San Diego, Calif.) were cultured in the manufacturer's fibroblast media (ScienCell, San Diego, Calif.) supplemented with fibroblast growth serum (FGS), fetal bovine serum (FBS), and Pen/Strep. Cells were treated at 80-90% confluency. Only cell passages 1 through 4 were used for experiments. To perform a cyclic GMP assay, the cells were treated as described previously (Huntley et al., J. Cell. Physiol., 209(3):943-9 (2006)). Briefly, cells were incubated in Hank's balanced salt solution (Invitrogen, Carlsbad, Calif.) containing 20 mmol/L N-[2-hydroxyethyl]piperazine-N′[2-ethanesulfonic acid], 0.1% bovine serum albumin, and 0.5 mmol/L 3-isobutyl-1-methylzanthine (Sigma, St. Louis, Mo.). Treated cells received 10^−6 M, 10^−8M, or 10^−10 M of NP or cANG for 10 minutes. Cells were lysed in 6% TCA and sonicated for 10 minutes. The samples were ether extracted four times in four volumes of ether, dried, and reconstituted in […] of cGMP assay buffer.
The samples were assayed using a competitive RIA cGMP kit (Perkin-Elmer, Boston, Mass.). Briefly, samples and standards were incubated with […] anti-human cGMP polyclonal antibody and I^125-antigen for 18 hours. Cyclic GMP assay buffer was added to the samples, and they were centrifuged for 20 minutes at 2500 rpm. The free fraction was aspirated off, and the bound fraction was counted and concentrations determined. Samples were corrected for dilution factors and protein concentration, and values were expressed as pmoles/mL.

B-type natriuretic peptide [BNP]
cGMP production (NPR-A (GC-A)): induced cGMP production | cGMP production (NPR-B (GC-B)): Minimal cGMP production | cGMP production [1]: resulted in cGMP production

cANG: chimeric polypeptide containing an N-terminus and ring structure of CNP and a C-terminal Ang-(1-7) (GLSKGCFGLKLDRIGSMSGLGCDRVYIHP; not fully specified (bridges); cysteine pairing not given here)
cGMP production [1]: resulted in cGMP production

angiotensin-(1-7) [Ang1-7]
cGMP production (NPR-A (GC-A)): did not induce cGMP production | cGMP production (NPR-B (GC-B)): did not induce cGMP production

Ang1-7BNP: chimeric polypeptide containing an N-terminal Ang-(1-7) and a ring structure and C-terminus of BNP
cGMP production (NPR-A (GC-A)): induced cGMP production | cGMP production (NPR-B (GC-B)): Neither BNP-Ang1-7 nor Ang1-7BNP induced cGMP production

C-type natriuretic peptide (GLSKGCFGLKLDRIGSMSGLGC) [CNP]
cGMP production [1]: resulted in cGMP production

CC[C@H](C)[C@@H]1NC(=O)[C@H](CCCNC(=N)N)NC(=O)[C@H](CC(=O)O)NC(=O)[C@H](CCSC)NC(=O)[C@H](CCCNC(=N)N)NC(=O)CNC(=O)CNC(=O)[C@H](Cc2ccccc2)NC(=O)[C@@H](NC(=O)[C@H](CO)NC(=O)[C@H](CO)NC(=O)[C@H](CCCNC(=N)N)NC(=O)[C@H](CCCNC(=N)N)NC(=O)[C@H](CC(C)C)NC(=O)[C@@H](N)CO)CSSC[C@@H](C(=O)N[C@@H](CC(N)=O)C(=O)N[C@@H](CO)C(=O)N[C@@H](Cc2ccccc2)C(=O)N[C@@H](CCCNC(=N)N)C(=O)N[C@@H](Cc2ccc(O)cc2)C(=O)O)NC(=O)CNC(=O)[C@H](CC(C)C)NC(=O)CNC(=O)[C@H](CO)NC(=O)[C@H](CCC(N)=O)NC(=O)[C@H](C)NC(=O)CNC1=O [ANP, atrial natriuretic peptide]
cGMP production [1]: resulted in cGMP production

BNP-Ang1-7: chimeric polypeptide containing an N-terminus and ring structure of BNP and a C-terminal Ang-(1-7) (SPKMVQGSGCFGRKMDRISSSSGLGCDRVYIHP; not fully specified (bridges); cysteine pairing not given here)
cGMP production (NPR-A (GC-A)): induced cGMP production | cGMP production (NPR-B (GC-B)): Neither BNP-Ang1-7 nor Ang1-7BNP induced cGMP production
